Where two headings read alike, the source gives them in different places.

Assay in all cases: cell-based or functional assay
For assay [1], the target named is TGFβ1 (R&D systems) (UniProt P01137).
Assay [2] has the same target. This is another data set of the same source.
Another assay concerns the target IL2Rαβγ on CTLL2 cells.
The target of assay [3] is IL2Rβ and common γ chain on 32Dβ cells.
Assay [4] shares this target. This is another data set of the same source.

UniProt P01137, sequence (P01137 279-390 limits assumed): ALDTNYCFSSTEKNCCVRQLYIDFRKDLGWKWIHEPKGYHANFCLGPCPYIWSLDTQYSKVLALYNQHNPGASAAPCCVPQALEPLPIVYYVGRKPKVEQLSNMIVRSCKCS

“Human recombinant TGFβRII/Fc (from UniProt P37173 24-159) (Fc fusion)”: the IC50, inhibition of TGFβ1 activity in HEK-Blue TGFβ cells was found to be 0.461 nM in the assay with TGFβ1 (R&D systems) [1] and 0.559 nM with TGFβ1 (R&D systems) [2].

With “human recombinant IL-15 (from UniProt P40933 49-162) (ligand)”, in the assay with IL2Rαβγ on CTLL2 cells, the EC50, CTLL2 cell proliferation (PrestoBlue) is 0.00495 nM and the EC50, CTLL2 cell proliferation (WST1) was 0.00622 nM. In addition, in assay [3], the EC50 (printed EC:), 32Dβ cell proliferation (WST1) amounted to 0.0166 nM and the EC50, 32Dβ cell proliferation (WST1) is 0.0166 nM. The EC50, 32Dβ cell proliferation (WST1) in assay [4] stood at 0.0106 nM.

Source of the values: patent publication US20240124543A1.
